Data: publication PMC8546539, “CK2 Phosphorylation of Human Papillomavirus 16 E2 on Serine 23 Promotes Interaction with TopBP1 and Is Critical for E2 Interaction with Mitotic Chromatin and the Viral Life Cycle” (mBio, 2021)

B1: His-E2-S23D (amino acids 1 to 200) (domain or fragment)
chain: METLCQRLNVCQDKILTHYENDDTDLRDHIDYWKHMRLECAIYYKAREMGFKHINHQVVPTLAVSKNKALQAIELQLTLETIYNSQYSNEKWTLQDVSLEVYLTAPTGCIKKHGYTVEVQFDGDICNTMHYTNWTHIYICEEASVTVVEGQVDYYGLYYVHEGIRTYFVQFKDDAEKYSKNKVWEVHAGGQVILCPTSVF
notes: source: E. coli BL21(DE3), purified (Ni-NTA agarose, size exclusion chromatography)

Assays:
[1] = molecular target: TopBP1 (UniProt Q92547); experiment: TopBP1 antibody co-IP, E2 Western blot; conditions: reference: E2-WT; sites S23
[2] = molecular target: TopBP1 (UniProt Q92547); experiment: TopBP1 antibody co-IP, E2 Western blot; conditions: reference: E2-WT; sites S23; remark: listed apart in the source
[3] = molecular target: T1, GST TopBP1 (aa 32 to 1522) His (UniProt Q92547 32-1522); experiment: pull-down; conditions: both partners purified
T1 construct: also called GST-tagged TopBP1; recombinant GST-TopBP1 (full length); source: E. coli BL21(DE3), purified (Glutathione Sepharose 4B, size exclusion chromatography)

Row | Molecule | binding against the reference [1] | binding against the reference [2] | binding result [3]
1 | HPV16 E2 (from UniProt P03120) E2-S23A | weaker | weaker | 
2 | B1 |  |  | binds
